# In the RNAGym collection of RNA variant scans (doi:10.1073/pnas.2313332121):
# B1: TPR t1 (parent)
# chain: GACCAAUCUGCCCUCAGAGCUCGAGAACAUCUUCGGAUGCAGAGGAGGCAGGCUUCGGUGGCGCGAUAGCGCCAACGUCCUCAACCUCCAAUGCAUCCCACCACAUGAUGAUGCCUGAAGAGCCUUGGUUUUUUG
# Variants of: B1
# Assay: polymerase ribozyme fitness, log enrichment relative to wild type (log ratio); higher = more active; in vitro selection for triplet polymerase activity
# In short: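 Mutant libraries were PCR-built and transcribed for each subunit of a heterodimeric triplet polymerase ribozyme and selected for one round in triplicate at −7 °C, frozen, before gel excision of extended constructs and streptavidin-bead capture. Input and output libraries were Illumina-sequenced, keeping genotypes with ≥10 input reads and ≥1 read per output. Fitness is a logarithmic ratio of genotype to wild-type enrichment, in base 2, using inverse-variance-weighted replicate averages.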
row,Variant,polymerase ribozyme fitness (log ratio)
1,A16G C40A C86U A90U A91C U106A U112G,-4.19
2,C15G C49U U78A U125G,-3.37
3,C15G U59G C123G U129G,-1.59
4,A16G G77A C85G,-3.69
5,C15U A37C G61C,-3.39
6,A18C A37U G48A,-3.12
7,G17U C70A C88A A90G,-4.06
8,C15U C62G C85A,-4.14
9,C15U A83G,-1.88
10,A16U U116C,-0.734
11,A16U A29U U54A G63U,-3.53
12,G17A G42U G57A G120C,-3.79
13,G17A C53A A90G A95U,-3.77
14,C15U A37C C76G,-2.14
15,G17U A37C C53A A83U A90U A91C,-3.91
16,C15G U59G,-2.27
17,C15U G60U,-1.08
18,A16U U59G G69A U96C,-4.5
19,C15G C22U A37G U38G G63C G110C,-5.93
20,A16U G17A G117A,-2.04
21,C15U A27C C85A G117C C124G G128A U129G,-6.66

row,Variant,polymerase ribozyme fitness (log ratio)
1,C15G C79U,-1.96
2,G17C U129A,-5.13
3,G17A C53A C124G,-0.146
4,A16U C89U,-1.23
5,C15U C28G G39U C124A U129G,-5.23
6,C15U C34A G45C,-6.34
7,A16G C49A C88A C99A C102U C114U,-4.49
8,C15U G63C,-2.18
9,C15U C73U A83G,-2.56
10,C15U A16U G57A C82U U112A,-5.23
11,A18C A66U,-5.53
12,A16U C20A C64U U87C U130C,-4.77
13,C15U A46G G51A C56G U59C G71C U78G U92G C123U,-6.11
14,G17U G69U A111G U133G,0.0717
15,C15G G42C G60U C94U A118U,-3.25
16,A16U C56G U125A,-3.24
17,G17C U133G G135U,-3.94
18,C15U C56U G117C,-1.61
19,C15G C70G A90G C114G,-6.41
20,C15U G52C C62G U78A,-3.9
21,G17C A41U U130A,-4.18

row,Variant,polymerase ribozyme fitness (log ratio)
1,G17U C123A,-1.2
2,A16C C64G G69U C94G G110U,-4.25
3,A16U C56G C115A,-4.04
4,G17A C20U G57C G61A,-4.32
5,A16U G113A,-3.61
6,G17C G35A C123G G128U,-4.31
7,A18C A29U,-4.04
8,G17U G19U G69U A84U G93A,-4.27
9,C15G G48A C85G,-3.62
10,G17U C70G,-4.78
11,C15G G71A U81C,-4.61
12,A16U C72A,-1.32
13,A16U C123A,-1.57
14,A16U C123U,0.19
15,A16U A41G U78G A100U,-3.98
16,A16U A50G U96A U112C G127C,-2.27
17,C15U C53A A83C,-1.46
18,A16U C79U G110A,-2.61
19,A16U C56A G69U G117U,-2.35
20,C15U C49A C72A U129C U134A G135C,-1.14
21,A16C U87A,-2.49

row,Variant,polymerase ribozyme fitness (log ratio)
1,A16G C64U G77U,-1.55
2,A16G G52A U116C,0.826
3,G17A C79U U106A A111C,-4.21
4,C15G C88G,-3.07
5,G17C A46G C124A,-1.43
6,A16C C82U G110A C123G U132A,-4.33
7,G17U G48U C115G G120A,-1.53
8,A16U C56U U87A A103U U112A,-4.76
9,C15U G44C G93A,-2.63
10,C15G C97U C124U,-1.59
11,C15G C56G U87G U112G G113A C123G G135A,-3.08
12,A16U G23U G61A A84C C114A G117U,-6.96
13,A16U A18U,-3.06
14,G17U G69U A84C C124A,1.63
15,G17C G77U A91U C123A U132A,-3.88
16,G17U C20U A26G G42C A83U C124U U130G,-5.83
17,C15U G60C A91U U129A,-4.69
18,G17A U116C,-3.7
19,A16C C72A G110U,-3.99
20,C15U A100U G117U,-2.41
